{"source": "ChEMBL document CHEMBL1177690", "about": "“Target-specific control of lymphoid-specific protein tyrosine phosphatase (Lyp) activity” (Bioorg Med Chem, 2010)", "proteins": {"B1": {"name": "Tyrosine-protein phosphatase non-receptor type 22 (Homo sapiens), Q9Y2R2 (protein)", "chain": "MDQREILQKFLDEAQSKKITKEEFANEFLKLKRQSTKYKADKTYPTTVAEKPKNIKKNRYKDILPYDYSRVELSLITSDEDSSYINANFIKGVYGPKAYIATQGPLSTTLLDFWRMIWEYSVLIIVMACMEYEMGKKKCERYWAEPGEMQLEFGPFSVSCEAEKRKSDYIIRTLKVKFNSETRTIYQFHYKNWPDHDVPSSIDPILELIWDVRCYQEDDSVPICIHCSAGCGRTGVICAIDYTWMLLKDGIIPENFSVFSLIREMRTQRPSLVQTQEQYELVYNAVLELFKRQMDVIRDKHSGTESQAKHCIPEKNHTLQADSYSPNLPKSTTKAAKMMNQQRTKMEIKESSSFDFRTSEISAKEELVLHPAKSSTSFDFLELNYSFDKNADTTMKWQTKAFPIVGEPLQKHQSLDLGSLLFEGCSNSKPVNAAGRYFNSKVPITRTKSTPFELIQQRETKEVDSKENFSYLESQPHDSCFVEMQAQKVMHVSSAELNYSLPYDSKHQIRNASNVKHHDSSALGVYSYIPLVENPYFSSWPPSGTSSKMSLDLPEKQDGTVFPSSLLPTSSTSLFSYYNSHDSLSLNSPTNISSLLNQESAVLATAPRIDDEIPPPLPVRTPESFIVVEEAGEFSPNVPKSLSSAVKVKIGTSLEWGGTSEPKKFDDSVILRPSKSVKLRSPKSELHQDRSSPPPPLPERTLESFFLADEDCMQAQSIETYSTSYPDTMENSTSSKQTLKTPGKSFTRSKSLKILRNMKKSICNSCPPNKPAESVQSNNSSSFLNFGFANRFSKPKGPRNPPPTWNI"}}, "key": {"[1]": {"substrate": "O=C(O)c1ccccc1-c1c2ccc(=O)c([As]3SCCS3)c-2oc2c([As]3SCCS3)c(O)ccc12", "test": "Activity at Lyp expressed in Escherichia coli using pNPP as a substrate […]"}, "[2]": {"substrate": "O=C(O)c1ccccc1-c1c2ccc(=O)c([As]3SCCS3)c-2oc2c([As]3SCCS3)c(O)ccc12", "test": "Activity at Lyp expressed in Escherichia coli using DADEpYLIPQQG as a substrate […]"}}, "data": [{"protein": "B1", "values": [{"measurement": "kcat", "setting": "[1]", "value": 0.49, "unit": "s⁻¹"}, {"measurement": "kcat", "setting": "[2]", "value": 3.84, "unit": "s⁻¹"}]}]}
